Data as given in PMC9463536 (The Journal of Biological Chemistry, 2022).

Target: T1, human claudin-4, biotinylated with NHS-PEG4-biotin (human, UniProt O14493 1-209)
T1 construct: also called biotinylated claudin-4
T1 sequence: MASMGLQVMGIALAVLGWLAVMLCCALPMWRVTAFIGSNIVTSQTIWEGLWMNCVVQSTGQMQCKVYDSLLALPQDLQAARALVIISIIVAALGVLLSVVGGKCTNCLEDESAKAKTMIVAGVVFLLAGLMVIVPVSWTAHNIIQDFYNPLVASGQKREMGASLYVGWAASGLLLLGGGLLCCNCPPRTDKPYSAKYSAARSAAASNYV
Assay: BLI
Settings: both partners purified

B1: cCpE^1 (cCpE^[change]) (domain or fragment)
chain: KEILDLAAATERLNLTDALNSNPAGNLYDWRSSNSYPWTQKLNLHLTITATGQKYRILASKIVDFNIYSNNFNNLVKLEQSLGDGVKDHYVDISLDAGQYVLVMKANSSYSGNYPYSILFQKF
Question: With B1 as the binder, how does the Kd read?
Answer: The Kd was about 3 nM.
